Blank lines part the entries; values can stand above or below the binder they belong to. No end group written: not given here.
Columns and labels:
[1] = biological target: T1, rat lung ACE (angiotensin I converting enzyme in ground rat lung material) (rat, UniProt P47820 36-1313, limits assumed); assay: cell-based or functional assay
T1 sequence (looked up): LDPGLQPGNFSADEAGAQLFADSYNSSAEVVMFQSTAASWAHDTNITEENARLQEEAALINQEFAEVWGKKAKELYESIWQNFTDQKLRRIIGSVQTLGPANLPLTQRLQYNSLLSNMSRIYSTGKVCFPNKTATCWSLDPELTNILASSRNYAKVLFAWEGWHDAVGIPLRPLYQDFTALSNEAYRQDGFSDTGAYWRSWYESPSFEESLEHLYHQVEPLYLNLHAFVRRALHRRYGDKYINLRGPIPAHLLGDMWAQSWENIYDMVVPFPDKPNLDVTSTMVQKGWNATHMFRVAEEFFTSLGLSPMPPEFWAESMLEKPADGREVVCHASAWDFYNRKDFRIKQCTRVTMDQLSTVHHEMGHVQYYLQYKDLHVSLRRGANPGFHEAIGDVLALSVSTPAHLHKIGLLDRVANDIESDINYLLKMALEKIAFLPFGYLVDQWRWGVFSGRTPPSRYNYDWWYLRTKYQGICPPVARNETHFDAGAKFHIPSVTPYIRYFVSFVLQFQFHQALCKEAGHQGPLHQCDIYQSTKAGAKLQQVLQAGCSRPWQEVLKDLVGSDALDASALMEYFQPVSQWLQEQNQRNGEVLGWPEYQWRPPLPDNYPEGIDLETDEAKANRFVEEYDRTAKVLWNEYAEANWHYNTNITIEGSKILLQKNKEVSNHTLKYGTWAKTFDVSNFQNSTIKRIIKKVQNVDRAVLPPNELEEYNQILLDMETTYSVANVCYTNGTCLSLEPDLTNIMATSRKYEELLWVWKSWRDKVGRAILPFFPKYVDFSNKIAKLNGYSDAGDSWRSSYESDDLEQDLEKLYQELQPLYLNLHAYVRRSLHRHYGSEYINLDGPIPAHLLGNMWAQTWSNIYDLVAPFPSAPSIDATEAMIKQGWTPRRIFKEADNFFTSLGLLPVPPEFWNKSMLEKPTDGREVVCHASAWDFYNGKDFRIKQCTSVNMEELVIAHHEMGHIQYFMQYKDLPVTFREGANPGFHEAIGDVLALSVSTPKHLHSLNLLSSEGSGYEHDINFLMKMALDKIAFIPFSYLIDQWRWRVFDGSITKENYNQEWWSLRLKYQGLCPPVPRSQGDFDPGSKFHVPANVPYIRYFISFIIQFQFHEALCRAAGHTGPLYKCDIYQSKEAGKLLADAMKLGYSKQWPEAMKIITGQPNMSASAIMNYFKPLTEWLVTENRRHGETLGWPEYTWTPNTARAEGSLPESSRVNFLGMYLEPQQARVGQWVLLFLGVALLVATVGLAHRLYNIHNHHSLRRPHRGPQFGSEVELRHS

[2] = biological target: human converting enzyme (human ACE) (human, UniProt P12821 30-1306, limits assumed); assay: cell-based or functional assay

- in vitro degradation: % of peptide assayed relative to the control (enzyme immunoassay), T30 min, no captopril [1]: 28%
- in vitro degradation: % of peptide assayed relative to the control (enzyme immunoassay), T30 min, with captopril 10 uM [1]: 129%
- in vitro degradation: % of peptide assayed relative to the control (enzyme immunoassay), T60 min, no captopril [1]: 9%
- in vitro degradation: % of peptide assayed relative to the control (enzyme immunoassay), T60 min, with captopril 10 uM [1]: 111%
- in vitro degradation: % of peptide assayed relative to the control (enzyme immunoassay), T120 min, no captopril [1]: 5%
- in vitro degradation: % of peptide assayed relative to the control (enzyme immunoassay), T120 min, with captopril 10 uM [1]: 75%
- in vitro degradation: % of peptide assayed relative to the control (enzyme immunoassay), T240 min, no captopril [1]: 5%
- in vitro degradation: % of peptide assayed relative to the control (enzyme immunoassay), T240 min, with captopril 10 uM [1]: 89%
- in vitro degradation: % of peptide assayed relative to the control (enzyme immunoassay), T10 min, no captopril [2]: 82%
- in vitro degradation: % of peptide assayed relative to the control (enzyme immunoassay), T10 min, with captopril 10 uM [2]: 90%
- in vitro degradation: % of peptide assayed relative to the control (enzyme immunoassay), T30 min, no captopril [2]: 75%
- in vitro degradation: % of peptide assayed relative to the control (enzyme immunoassay), T30 min, with captopril 10 uM [2]: 100%
- in vitro degradation: % of peptide assayed relative to the control (enzyme immunoassay), T60 min, no captopril [2]: 50%
- in vitro degradation: % of peptide assayed relative to the control (enzyme immunoassay), T60 min, with captopril 10 uM [2]: 85%
- in vitro degradation: % of peptide assayed relative to the control (enzyme immunoassay), T120 min, no captopril [2]: 25%
- in vitro degradation: % of peptide assayed relative to the control (enzyme immunoassay), T120 min, with captopril 10 uM [2]: 85%
- in vitro degradation: % of peptide assayed relative to the control (enzyme immunoassay), T240 min, no captopril [2]: 7%
- in vitro degradation: % of peptide assayed relative to the control (enzyme immunoassay), T240 min, with captopril 10 uM [2]: 100%
B1: N-acetyl-Ser-Asp-Lys-Pro (AcSDKP) (peptide)
peptide: Ac-SDKP

- in vitro degradation: % of peptide assayed relative to the control (enzyme immunoassay), T30 min, no captopril [1]: 100%
- in vitro degradation: % of peptide assayed relative to the control (enzyme immunoassay), T30 min, with captopril 10 uM [1]: 125%
- in vitro degradation: % of peptide assayed relative to the control (enzyme immunoassay), T60 min, no captopril [1]: 65%
- in vitro degradation: % of peptide assayed relative to the control (enzyme immunoassay), T60 min, with captopril 10 uM [1]: 65%
- in vitro degradation: % of peptide assayed relative to the control (enzyme immunoassay), T120 min, no captopril [1]: 95%
- in vitro degradation: % of peptide assayed relative to the control (enzyme immunoassay), T120 min, with captopril 10 uM [1]: 109%
- in vitro degradation: % of peptide assayed relative to the control (enzyme immunoassay), T240 min, no captopril [1]: 126%
- in vitro degradation: % of peptide assayed relative to the control (enzyme immunoassay), T240 min, with captopril 10 uM [1]: 136%
- in vitro degradation: % of peptide assayed relative to the control (enzyme immunoassay), T10 min, no captopril [2]: 79%
- in vitro degradation: % of peptide assayed relative to the control (enzyme immunoassay), T10 min, with captopril 10 uM [2]: 90%
- in vitro degradation: % of peptide assayed relative to the control (enzyme immunoassay), T30 min, no captopril [2]: 100%
- in vitro degradation: % of peptide assayed relative to the control (enzyme immunoassay), T30 min, with captopril 10 uM [2]: 162%
- in vitro degradation: % of peptide assayed relative to the control (enzyme immunoassay), T60 min, no captopril [2]: 116%
- in vitro degradation: % of peptide assayed relative to the control (enzyme immunoassay), T60 min, with captopril 10 uM [2]: 78%
- in vitro degradation: % of peptide assayed relative to the control (enzyme immunoassay), T120 min, no captopril [2]: 116%
- in vitro degradation: % of peptide assayed relative to the control (enzyme immunoassay), T120 min, with captopril 10 uM [2]: 95%
- in vitro degradation: % of peptide assayed relative to the control (enzyme immunoassay), T240 min, no captopril [2]: 107%
- in vitro degradation: % of peptide assayed relative to the control (enzyme immunoassay), T240 min, with captopril 10 uM [2]: 104%
- in vitro degradation: % of peptide assayed relative to the control (enzyme immunoassay), T1440 min, no captopril [2]: 86%
- in vitro degradation: % of peptide assayed relative to the control (enzyme immunoassay), T1440 min, with captopril 10 uM [2]: 117%
B2: N-acetyl-Ser-Asp-Lys-Pro-NH2 (AcSDKP-NH2) (peptide)
peptide: Ac-SDKP-NH2

Reference: patent US7601333B2, “Use of a tetrapeptide AcSDKP (SEQ ID No. 1) analog resistant to the angiotensin I converting enzyme for measuring glomerular filtration rate in a human or an animal and kit containing same” (Assistance Publique-Hopitaux de Paris, priority 2003, dated 2009)
